In patent publication US20200262888A1 (HANMI PHARM, published 2020):
Non-standard residues stand in square brackets, D forms with d. No end group written: not given here. *: point of attachment. Acetyl(2-(4-imidazolyl)) = O=C(Cc1c[nH]cn1)*

T1: human GLP-2 receptor (human, UniProt O95838 1-553)
T1 sequence (looked up): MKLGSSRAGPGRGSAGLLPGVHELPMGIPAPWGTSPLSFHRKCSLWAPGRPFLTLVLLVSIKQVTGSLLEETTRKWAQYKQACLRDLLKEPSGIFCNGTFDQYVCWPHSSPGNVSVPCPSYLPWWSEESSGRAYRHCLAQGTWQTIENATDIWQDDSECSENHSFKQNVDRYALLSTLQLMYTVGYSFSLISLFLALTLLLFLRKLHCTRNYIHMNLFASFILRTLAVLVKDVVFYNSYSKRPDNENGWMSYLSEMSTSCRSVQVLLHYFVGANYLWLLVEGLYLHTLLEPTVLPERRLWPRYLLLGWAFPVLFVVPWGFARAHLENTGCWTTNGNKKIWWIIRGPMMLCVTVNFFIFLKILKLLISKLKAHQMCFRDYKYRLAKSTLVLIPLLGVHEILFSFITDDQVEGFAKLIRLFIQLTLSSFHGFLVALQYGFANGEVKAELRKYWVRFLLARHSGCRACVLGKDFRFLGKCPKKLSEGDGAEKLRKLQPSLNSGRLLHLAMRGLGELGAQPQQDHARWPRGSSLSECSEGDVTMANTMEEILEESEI


Target: T1, human GLP-2 receptor
Assay: cell-based or functional assay

Row | Molecule | In vitro activity compared to human GLP-2 (%) (relative titer from EC50 of cAMP accumulation, CHO-K1 cells expressing human GLP-2 receptor)
1 | Teduglutide (Gattex, Shire) (peptide) | 148
2 | [Acetyl(2-(4-imidazolyl))]GDGSFSDEMNTILDNLAARDFINWLIQTRITDC [CA GLP-2 RC] | 120
3 | [Acetyl(2-(4-imidazolyl))]GDGSFSDEMNTILDNLAARDFINWLIQTRITDK [CA GLP-2 RK] | 333
4 | XGDGSFSDEMNTILDNLAARDFINWLIQTKITDC (position 1 is imidazoacetyldeshistidine (caH) instead of histidine) [CA GLP-2 KC] | 149
5 | XGDGSFSDEMNTILDNLAARDFINWLIQTKITDK (position 1 is imidazoacetyldeshistidine (caH) instead of histidine) [CA GLP-2 KK] | 206
